Test results: the supplement of paper PMC10567573

B1: LOXL2 (parent)
chain: YVEVKEGKTWKQICDKHWTAKNSR
B2: COX4I1 (parent)
chain: FDKEWVAKQTKRMLDMKVNPIQGL
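Note: lentivirally expressed fusions sorted by FACS into six bins by GFP to DsRed ratio, PSI derived from sequencing read proportions per bin multiplied by bin number.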

Variants of: B1
Assay: protein stability index of a GFP-peptide fusion (GPS, HEK-293T) (PSI 1-6); higher = more stable
Conditions: c terminus: a fixed tail appended
Work on YVTVKEGKTWKQICDKHWTAKNSR yielded a protein stability index of 3.63.
For YVKVKEGKTWKQICDKHWTAKNSR, the protein stability index was 2.68.
Variant YVEVKEGKTWDQICDKHWTAKNSR has a protein stability index of 1.18.
With YVEVKEGKTWMQICDKHWTAKNSR the protein stability index was 2.1.
YVEVKEGKTWIQICDKHWTAKNSR showed a protein stability index of 2.23.
For YVEVKEGKTWPQICDKHWTAKNSR, the protein stability index was 1.99.
YVEVKEGKTWVQICDKHWTAKNSR showed a protein stability index of 2.1.
With YVEVKEGKTWTQICDKHWTAKNSR the protein stability index was 2.93.
For YVEVKEGKTWCQICDKHWTAKNSR, the protein stability index was 2.28.
For YVEVKEGKTWYQICDKHWTAKNSR, the protein stability index was 4.35.
In the case of YVEVKEGKTWKQICYKHWTAKNSR, the protein stability index is reported as 2.13.
With YVEVKEGKTWKQICSKHWTAKNSR the protein stability index was 2.56.
For YVEVKEGKTWKQICFKHWTAKNSR, the protein stability index was 2.12.
YVEVKEGKTWKQICCKHWTAKNSR showed a protein stability index of 1.72.
YVEVKEGKTWKQICNKHWTAKNSR showed a protein stability index of 2.27.
Variant YVEVQEGKTWKQICDKHWTAKNSR has a protein stability index of 3.01.
YVEVDEGKTWKQICDKHWTAKNSR showed a protein stability index of 2.54.
In the case of YVEVYEGKTWKQICDKHWTAKNSR, the protein stability index is reported as 1.78.
Work on YVEVMEGKTWKQICDKHWTAKNSR yielded a protein stability index of 2.33.
Variant YVEVKEGKTWKQILDKHWTAKNSR has a protein stability index of 1.8.
YVEVKEGKTWKQIADKHWTAKNSR showed a protein stability index of 1.77.
Work on YVEVKEGKTWKQIVDKHWTAKNSR yielded a protein stability index of 1.93.
Variant YVEVKEGKTWKQIQDKHWTAKNSR has a protein stability index of 1.74.
Variant YVEVKEGKTWKQIGDKHWTAKNSR has a protein stability index of 2.31.
With YVEVKEGKTWKQIIDKHWTAKNSR the protein stability index was 2.16.
YVEVKEGKTWKQINDKHWTAKNSR gave a protein stability index of 1.99.
For YVEVKEGKTWKQIYDKHWTAKNSR, the protein stability index was 1.93.

Variants of: B2
Assay: as above
Conditions: c terminus: a fixed tail appended
With RDKEWVAKQTKRMLDMKVNPIQGL the protein stability index was 2.42.
For WDKEWVAKQTKRMLDMKVNPIQGL, the protein stability index was 2.17.
For DDKEWVAKQTKRMLDMKVNPIQGL, the protein stability index was 4.38.
For SDKEWVAKQTKRMLDMKVNPIQGL, the protein stability index was 3.34.
For KDKEWVAKQTKRMLDMKVNPIQGL, the protein stability index was 3.57.
HDKEWVAKQTKRMLDMKVNPIQGL gave a protein stability index of 3.13.
Work on EDKEWVAKQTKRMLDMKVNPIQGL yielded a protein stability index of 3.19.
Variant ADKEWVAKQTKRMLDMKVNPIQGL has a protein stability index of 3.42.
Work on QDKEWVAKQTKRMLDMKVNPIQGL yielded a protein stability index of 3.31.
For GDKEWVAKQTKRMLDMKVNPIQGL, the protein stability index was 2.92.
VDKEWVAKQTKRMLDMKVNPIQGL gave a protein stability index of 2.77.
MDKEWVAKQTKRMLDMKVNPIQGL gave a protein stability index of 3.23.
PDKEWVAKQTKRMLDMKVNPIQGL showed a protein stability index of 3.44.
With TDKEWVAKQTKRMLDMKVNPIQGL the protein stability index was 3.71.
In the case of CDKEWVAKQTKRMLDMKVNPIQGL, the protein stability index is reported as 2.62.
IDKEWVAKQTKRMLDMKVNPIQGL gave a protein stability index of 3.11.
For YDKEWVAKQTKRMLDMKVNPIQGL, the protein stability index was 1.71.
Work on NDKEWVAKQTKRMLDMKVNPIQGL yielded a protein stability index of 3.79.
Work on LDKEWVAKQTKRMLDMKVNPIQGL yielded a protein stability index of 3.57.
Work on FDKMWVAKQTKRMLDMKVNPIQGL yielded a protein stability index of 1.26.
For FDKPWVAKQTKRMLDMKVNPIQGL, the protein stability index was 1.66.
For FDKHWVAKQTKRMLDMKVNPIQGL, the protein stability index was 2.35.
With FDKCWVAKQTKRMLDMKVNPIQGL the protein stability index was 1.62.
FDKAWVAKQTKRMLDMKVNPIQGL gave a protein stability index of 2.41.
FDKFWVAKQTKRMLDMKVNPIQGL gave a protein stability index of 1.63.
With FDKKWVAKQTKRMLDMKVNPIQGL the protein stability index was 1.82.
For FDKGWVAKQTKRMLDMKVNPIQGL, the protein stability index was 1.43.
For FDKLWVAKQTKRMLDMKVNPIQGL, the protein stability index was 1.88.
FDKRWVAKQTKRMLDMKVNPIQGL showed a protein stability index of 1.84.
Work on FDKNWVAKQTKRMLDMKVNPIQGL yielded a protein stability index of 1.69.
In the case of FDKIWVAKQTKRMLDMKVNPIQGL, the protein stability index is reported as 1.47.
FDKQWVAKQTKRMLDMKVNPIQGL gave a protein stability index of 1.53.
FDKSWVAKQTKRMLDMKVNPIQGL showed a protein stability index of 1.43.
Variant FDKDWVAKQTKRMLDMKVNPIQGL has a protein stability index of 1.9.
FEKEWVAKQTKRMLDMKVNPIQGL gave a protein stability index of 1.89.
FMKEWVAKQTKRMLDMKVNPIQGL gave a protein stability index of 1.93.
With FLKEWVAKQTKRMLDMKVNPIQGL the protein stability index was 1.09.
FRKEWVAKQTKRMLDMKVNPIQGL gave a protein stability index of 1.27.
In the case of FTKEWVAKQTKRMLDMKVNPIQGL, the protein stability index is reported as 1.35.
Work on FYKEWVAKQTKRMLDMKVNPIQGL yielded a protein stability index of 1.76.
Variant FIKEWVAKQTKRMLDMKVNPIQGL has a protein stability index of 2.45.
Work on FNKEWVAKQTKRMLDMKVNPIQGL yielded a protein stability index of 2.57.
Work on FAKEWVAKQTKRMLDMKVNPIQGL yielded a protein stability index of 2.65.
With FWKEWVAKQTKRMLDMKVNPIQGL the protein stability index was 1.52.
For FGKEWVAKQTKRMLDMKVNPIQGL, the protein stability index was 1.55.
Variant FCKEWVAKQTKRMLDMKVNPIQGL has a protein stability index of 4.02.
FKKEWVAKQTKRMLDMKVNPIQGL gave a protein stability index of 1.62.
FPKEWVAKQTKRMLDMKVNPIQGL gave a protein stability index of 2.51.
For FVKEWVAKQTKRMLDMKVNPIQGL, the protein stability index was 1.26.
Work on FDEEWVAKQTKRMLDMKVNPIQGL yielded a protein stability index of 2.83.
In the case of FDLEWVAKQTKRMLDMKVNPIQGL, the protein stability index is reported as 2.06.
Work on FDGEWVAKQTKRMLDMKVNPIQGL yielded a protein stability index of 1.91.
FDFEWVAKQTKRMLDMKVNPIQGL gave a protein stability index of 1.87.
For FDCEWVAKQTKRMLDMKVNPIQGL, the protein stability index was 2.12.
Variant FDTEWVAKQTKRMLDMKVNPIQGL has a protein stability index of 2.1.
Variant FDSEWVAKQTKRMLDMKVNPIQGL has a protein stability index of 2.19.
In the case of FDHEWVAKQTKRMLDMKVNPIQGL, the protein stability index is reported as 1.52.
Variant FDNEWVAKQTKRMLDMKVNPIQGL has a protein stability index of 2.06.
Variant FDVEWVAKQTKRMLDMKVNPIQGL has a protein stability index of 1.68.
FDWEWVAKQTKRMLDMKVNPIQGL gave a protein stability index of 1.29.
For FDAEWVAKQTKRMLDMKVNPIQGL, the protein stability index was 2.17.
FDYEWVAKQTKRMLDMKVNPIQGL showed a protein stability index of 2.13.
Variant FDQEWVAKQTKRMLDMKVNPIQGL has a protein stability index of 2.85.
For FDREWVAKQTKRMLDMKVNPIQGL, the protein stability index was 1.66.
Work on FDDEWVAKQTKRMLDMKVNPIQGL yielded a protein stability index of 2.57.
FDMEWVAKQTKRMLDMKVNPIQGL showed a protein stability index of 1.64.
For FDPEWVAKQTKRMLDMKVNPIQGL, the protein stability index was 1.75.
